Binding result and Kd data for two molecules are collected here from article doi:10.1101/2020.09.10.287607 (bioRxiv, 2020).

Common to all, as to experiment: in vitro binding assay
Assay [1] concerns the target T1, recombinant human RSPO2 (Peprotech 120-43) (human, UniProt Q6UXX9 22-243).
The target in assay [2] is T2, recombinant human RSPO3 (Peprotech 120-44) (human, UniProt Q9BXY4 22-272).
T2 sequence (looked up): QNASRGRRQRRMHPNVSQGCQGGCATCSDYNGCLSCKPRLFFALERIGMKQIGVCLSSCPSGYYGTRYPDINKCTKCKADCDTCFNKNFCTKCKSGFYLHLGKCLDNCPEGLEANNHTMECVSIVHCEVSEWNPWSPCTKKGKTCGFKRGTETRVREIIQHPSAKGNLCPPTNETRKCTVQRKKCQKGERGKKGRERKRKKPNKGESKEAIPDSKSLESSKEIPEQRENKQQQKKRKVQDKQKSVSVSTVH

Assay [3] concerns the target T1, recombinant human RSPO2 (Peprotech …). This is another data set of the same source.

T1 sequence (Q6UXX9 22-243): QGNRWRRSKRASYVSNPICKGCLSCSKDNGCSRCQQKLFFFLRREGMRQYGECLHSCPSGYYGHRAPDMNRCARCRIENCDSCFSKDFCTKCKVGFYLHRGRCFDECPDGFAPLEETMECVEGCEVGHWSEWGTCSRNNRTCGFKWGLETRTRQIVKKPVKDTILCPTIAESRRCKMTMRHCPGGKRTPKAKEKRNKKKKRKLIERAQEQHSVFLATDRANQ

B1: recombinant human ZNRF3 Fc Chimera protein (R&D systems 7994-RF) (Fc fusion, UniProt Q9ULT6 56-219, looked up)
chain: KETAFVEVVLFESSPSGDYTTYTTGLTGRFSRAGATLSAEGEIVQMHPLGLCNNNDEEDLYEYGWVGVVKLEQPELDPKPCLTVLGKAKRAVQRGATAVIFDVSENPEAIDQLNQGSEDPLKRPVVYVKGADAIKLMNIVNKQKVARARIQHRPPRQPTEYFDM
Turning to B1, the binding result in assay [1] and in assay [2] was “binds” in each case.

B2: BMPR1A^ECD-AP (domain or fragment, UniProt P36894 24-152, looked up)
chain: QNLDSMLHGTGMKSDSDQKKSENGVTLAPEDTLPFLKCYCSGHCPDDAINNTCITNGHCFAIIEEDDQGETTLASGCMKYEGSDFQCKDSPKAQLRRTIECCRTNLCNQYLQPTLPPVVIGPFFDGSIR
Usually Kd stands for the constant that tells how readily two partners part at equilibrium. Take B2: in assay [3], the equilibrium dissociation constant (Kd) is approximately 4.8 nM.
